Experimental data reported in US20140044644A1 (UNIVERSITY OF ZURICH, published 2014).

Target: ankB in mouse brain homogenate (mouse, UniProt Q8C8R3 1-3898, limits assumed)
Assay: co-immunoprecipitation (ankG immunoprecipitate) from mouse brains, Western blot
Source text: FIG. 6: AnkG interacts directly with APP in the brain [0020] (a) AnkG and APP immunoprecipitates from human frontal cortex were immunoblotted with specific antibodies against ankG, APP and ankB. Immunoprecipitates with non-immune IgG served as a negative control. Note that APP co-immunoprecipitated with ankG and vice versa. Human brain homogenate (C) was used as positive control. (b) AnkG immunoprecipitates were obtained from arcAbeta (TG), non-transgenic (NTG) littermates and APP deficient (−/−) mouse brains. Note that APP, but not ankB, co-immunoprecipitated with ankG. Mouse brain homogenate (C) was used as positive control. (c) Primary rat hippocampal cultures were stained with antibodies against the C-terminal portion of APP (green) and with antibodies against ankG (red). Note the presence of both ankG and APP in the AIS. Scale bar=10 μm (upper panels) and Scale bar=30 μm (lower panels). […] AnkG binding to BSA-coated wells (2 mg/ml) served as negative control. Mean values (OD₄₅₀)±SEM are shown (n=6). (e) AnkG and APP immunoprecipitates from human AD hippocampus were immunoblotted with specific antibodies against APP and Caspr and L1. Immunoprecipitates with non-immune IgG served as a negative control. As already shown in (a) APP co-immunoprecipitated with ankG. Note the absence of Caspr and L1 from the immunoprecipitates. AD hippocampus homogenate (+) was used as positive control. […]

Sequence of ankB in mouse brain homogenate (Q8C8R3 whole entry): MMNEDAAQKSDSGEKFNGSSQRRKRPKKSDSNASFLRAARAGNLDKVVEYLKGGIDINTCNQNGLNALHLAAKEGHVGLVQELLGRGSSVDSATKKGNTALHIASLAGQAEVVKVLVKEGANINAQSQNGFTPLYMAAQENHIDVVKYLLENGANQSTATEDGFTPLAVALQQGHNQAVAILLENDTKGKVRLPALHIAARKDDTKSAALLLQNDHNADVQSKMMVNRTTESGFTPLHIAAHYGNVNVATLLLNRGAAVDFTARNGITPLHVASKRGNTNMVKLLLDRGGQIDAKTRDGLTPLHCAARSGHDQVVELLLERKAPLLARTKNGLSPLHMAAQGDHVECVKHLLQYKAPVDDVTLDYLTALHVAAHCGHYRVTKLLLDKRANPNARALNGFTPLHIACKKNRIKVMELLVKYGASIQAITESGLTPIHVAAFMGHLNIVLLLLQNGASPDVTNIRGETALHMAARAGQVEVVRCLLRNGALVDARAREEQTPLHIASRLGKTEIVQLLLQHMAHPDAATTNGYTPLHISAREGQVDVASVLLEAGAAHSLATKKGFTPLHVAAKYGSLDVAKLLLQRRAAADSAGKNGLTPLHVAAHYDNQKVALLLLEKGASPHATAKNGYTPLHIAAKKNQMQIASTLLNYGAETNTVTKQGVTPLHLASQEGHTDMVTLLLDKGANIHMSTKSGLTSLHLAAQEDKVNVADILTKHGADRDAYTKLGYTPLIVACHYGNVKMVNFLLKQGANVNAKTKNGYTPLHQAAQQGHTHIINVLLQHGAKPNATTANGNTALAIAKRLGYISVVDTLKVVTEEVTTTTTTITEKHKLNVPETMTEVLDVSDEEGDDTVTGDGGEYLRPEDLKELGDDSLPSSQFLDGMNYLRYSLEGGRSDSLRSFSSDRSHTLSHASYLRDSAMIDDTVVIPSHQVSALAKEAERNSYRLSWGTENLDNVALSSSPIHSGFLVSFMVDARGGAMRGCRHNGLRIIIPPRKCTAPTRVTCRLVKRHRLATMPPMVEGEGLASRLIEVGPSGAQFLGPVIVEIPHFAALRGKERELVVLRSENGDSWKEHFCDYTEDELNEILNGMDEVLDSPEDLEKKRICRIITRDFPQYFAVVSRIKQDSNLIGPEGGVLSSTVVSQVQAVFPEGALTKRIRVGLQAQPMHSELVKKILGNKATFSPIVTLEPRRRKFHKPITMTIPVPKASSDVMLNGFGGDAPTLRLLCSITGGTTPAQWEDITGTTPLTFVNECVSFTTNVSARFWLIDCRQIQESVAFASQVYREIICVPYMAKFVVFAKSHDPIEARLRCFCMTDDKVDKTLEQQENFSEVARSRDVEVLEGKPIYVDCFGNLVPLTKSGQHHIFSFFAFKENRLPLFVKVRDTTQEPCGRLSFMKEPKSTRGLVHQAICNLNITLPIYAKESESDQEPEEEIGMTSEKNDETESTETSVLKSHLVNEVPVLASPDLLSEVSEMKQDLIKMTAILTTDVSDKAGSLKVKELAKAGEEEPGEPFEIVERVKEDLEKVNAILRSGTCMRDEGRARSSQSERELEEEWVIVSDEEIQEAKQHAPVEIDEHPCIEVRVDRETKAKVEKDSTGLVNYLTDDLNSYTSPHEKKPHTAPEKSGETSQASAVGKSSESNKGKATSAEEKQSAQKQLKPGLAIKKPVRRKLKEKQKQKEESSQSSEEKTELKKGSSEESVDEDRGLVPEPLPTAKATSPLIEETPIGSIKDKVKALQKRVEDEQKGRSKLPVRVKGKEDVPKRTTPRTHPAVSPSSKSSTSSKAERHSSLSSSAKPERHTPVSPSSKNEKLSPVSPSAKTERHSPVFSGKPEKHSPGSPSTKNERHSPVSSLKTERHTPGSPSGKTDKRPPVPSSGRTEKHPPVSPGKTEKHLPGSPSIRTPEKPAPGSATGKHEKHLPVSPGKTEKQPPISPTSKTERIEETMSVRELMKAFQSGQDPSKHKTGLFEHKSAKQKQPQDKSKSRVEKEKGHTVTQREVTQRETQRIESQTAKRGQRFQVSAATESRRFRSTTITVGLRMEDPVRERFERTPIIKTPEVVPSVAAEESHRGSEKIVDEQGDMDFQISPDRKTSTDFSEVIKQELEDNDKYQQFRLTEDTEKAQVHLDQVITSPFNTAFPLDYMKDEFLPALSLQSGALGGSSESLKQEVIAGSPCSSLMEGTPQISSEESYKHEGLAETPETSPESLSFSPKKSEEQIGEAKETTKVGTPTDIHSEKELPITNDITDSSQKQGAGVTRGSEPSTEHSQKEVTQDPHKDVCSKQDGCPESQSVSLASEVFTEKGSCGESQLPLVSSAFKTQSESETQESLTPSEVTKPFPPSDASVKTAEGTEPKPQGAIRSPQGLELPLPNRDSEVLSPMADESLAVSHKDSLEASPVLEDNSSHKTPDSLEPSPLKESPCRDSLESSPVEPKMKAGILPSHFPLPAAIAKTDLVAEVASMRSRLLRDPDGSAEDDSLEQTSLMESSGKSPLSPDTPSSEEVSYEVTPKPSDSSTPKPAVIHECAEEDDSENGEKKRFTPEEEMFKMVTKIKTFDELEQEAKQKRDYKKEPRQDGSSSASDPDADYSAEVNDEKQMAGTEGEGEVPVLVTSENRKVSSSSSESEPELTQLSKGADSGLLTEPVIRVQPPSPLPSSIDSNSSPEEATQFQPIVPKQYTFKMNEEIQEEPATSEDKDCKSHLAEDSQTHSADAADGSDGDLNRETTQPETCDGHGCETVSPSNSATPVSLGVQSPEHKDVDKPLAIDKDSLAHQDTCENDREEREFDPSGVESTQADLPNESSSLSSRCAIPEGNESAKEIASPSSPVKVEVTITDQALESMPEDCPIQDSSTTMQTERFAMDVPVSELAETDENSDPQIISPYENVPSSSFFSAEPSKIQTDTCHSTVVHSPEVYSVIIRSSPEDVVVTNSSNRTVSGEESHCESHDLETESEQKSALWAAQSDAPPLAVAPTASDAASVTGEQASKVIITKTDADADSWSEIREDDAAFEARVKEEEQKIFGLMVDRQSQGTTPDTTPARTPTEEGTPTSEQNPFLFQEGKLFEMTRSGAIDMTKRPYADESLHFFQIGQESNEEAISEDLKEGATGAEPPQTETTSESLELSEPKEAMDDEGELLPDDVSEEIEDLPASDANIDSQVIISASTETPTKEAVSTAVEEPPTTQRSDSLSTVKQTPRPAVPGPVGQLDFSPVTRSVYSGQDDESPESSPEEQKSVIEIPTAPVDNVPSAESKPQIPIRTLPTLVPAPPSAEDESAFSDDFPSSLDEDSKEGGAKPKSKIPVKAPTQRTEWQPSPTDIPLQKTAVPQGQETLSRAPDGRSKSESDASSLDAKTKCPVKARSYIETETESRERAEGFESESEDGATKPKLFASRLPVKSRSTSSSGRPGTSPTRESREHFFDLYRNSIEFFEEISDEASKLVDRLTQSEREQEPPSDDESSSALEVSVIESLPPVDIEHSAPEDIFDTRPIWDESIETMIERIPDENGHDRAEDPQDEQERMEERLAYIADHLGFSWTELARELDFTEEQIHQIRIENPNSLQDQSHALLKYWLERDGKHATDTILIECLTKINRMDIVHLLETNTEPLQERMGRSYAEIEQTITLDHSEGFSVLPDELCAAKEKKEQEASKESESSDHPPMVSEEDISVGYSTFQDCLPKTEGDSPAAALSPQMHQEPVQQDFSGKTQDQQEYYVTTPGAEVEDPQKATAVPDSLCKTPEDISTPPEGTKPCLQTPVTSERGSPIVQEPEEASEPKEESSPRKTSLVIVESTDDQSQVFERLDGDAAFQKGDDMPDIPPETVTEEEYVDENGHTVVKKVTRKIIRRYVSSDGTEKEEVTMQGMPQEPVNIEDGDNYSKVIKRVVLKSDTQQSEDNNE

- binding result: no binding
B1: ankG in mouse brain homogenate (other, UniProt G5E8K5 1-1961, looked up)
chain: MSEEPKEKPAKPAHRKRKGKKSDANASYLRAARAGHLEKALDYIKNGVDVNICNQNGLNALHLASKEGHVEVVSELLQREANVDAATKKGNTALHIASLAGQAEVVKVLVTNGANVNAQSQNGFTPLYMAAQENHLEVVRFLLDNGASQSLATEDGFTPLAVALQQGHDQVVSLLLENDTKGKVRLPALHIAARKDDTKAAALLLQNDTNADVESKSGFTPLHIAAHYGNINVATLLLNRAAAVDFTARNDITPLHVASKRGNANMVKLLLDRGAKIDAKTRDGLTPLHCGARSGHEQVVEMLLDRSAPILSKTKNGLSPLHMATQGDHLNCVQLLLQHNVPVDDVTNDYLTALHVAAHCGHYKVAKVLLDKKASPNAKALNGFTPLHIACKKNRIRVMELLLKHGASIQAVTESGLTPIHVAAFMGHVNIVSQLMHHGASPNTTNVRGETALHMAARSGQAEVVRYLVQDGAQVEAKAKDDQTPLHISARLGKADIVQQLLQQGASPNAATTSGYTPLHLAAREGHEDVAAFLLDHGASLSITTKKGFTPLHVAAKYGKLEVASLLLQKSASPDAAGKSGLTPLHVAAHYDNQKVALLLLDQGASPHAAAKNGYTPLHIAAKKNQMDIATSLLEYGADANAVTRQGIASVHLAAQEGHVDMVSLLLSRNANVNLSNKSGLTPLHLAAQEDRVNVAEVLVNQGAHVDAQTKMGYTPLHVGCHYGNIKIVNFLLQHSAKVNAKTKNGYTALHQAAQQGHTHIINVLLQNNASPNELTVNGNTALAIARRLGYISVVDTLKVVTEEIMTTTTITEKHKMNVPETMNEVLDMSDDEVRKASAPEKLSDGEYISDGEEGDKCTWFKIPKVQEVLVKSEDAITGDTDKYLGPQDLKELGDDSLPAEGYVGFSLGARSASLRSFSSDRSYTLNRSSYARDSMMIEELLVPSKEQHLTFTREFDSDSLRHYSWAADTLDNVNLVSSPVHSGFLVSFMVDARGGSMRGSRHHGMRIIIPPRKCTAPTRITCRLVKRHKLANPPPMVEGEGLASRLVEMGPAGAQFLGPVIVEIPHFGSMRGKERELIVLRSENGETWKEHQFDSKNEDLAELLNGMDEELDSPEELGTKRICRIITKDFPQYFAVVSRIKQESNQIGPEGGILSSTTVPLVQASFPEGALTKRIRVGLQAQPVPEETVKKILGNKATFSPIVTVEPRRRKFHKPITMTIPVPPPSGEGVSNGYKGDATPNLRLLCSITGGTSPAQWEDITGTTPLTFIKDCVSFTTNVSARFWLADCHQVLETVGLASQLYRELICVPYMAKFVVFAKTNDPVESSLRCFCMTDDRVDKTLEQQENFEEVARSKDIEVLEGKPIYVDCYGNLAPLTKGGQQLVFNFYSFKENRLPFSIKIRDTSQEPCGRLSFLKEPKTTKGLPQTAVCNLNITLPAHKKAEKADRRQSFASLALRKRYSYLTEPSMSPQSPCERTDIRMAIVADHLGLSWTELARELNFSVDEINQIRVENPNSLISQSFMLLKKWVTRDGKNATTDALTSVLTKINRIDIVTLLEGPIFDYGNISGTRSFADENNVFHDPVDGHPSFQVELETPMGLYCTPPNPFQQDDHFSDISSIESPFRTPSRLSDGLVPSQGNIEHPTGGPPVVTAEDTSLEDSKMDDSVTVTDPADPLDVDESQLKDLCQSECAQCWASVPGIPNDGRQAEPLRPQTRKVGMSSEQQEKGKSGPDEEVTEDKVKSLFEDIQLEEVEAEEMTEDQGQAMLNRVQRAELAMSSLAGWQNETPSGSLESPAQARRLTGGLLDRLDDSSDQARDSITSYLTGEPGKIEANGNHTAEVIPEAKAKPYFPESQNDIGKQSIKENLKPKTHGCGRTEEPVSPLTAYQKSLEETSKLVIEDAPKPCVPVGMKKMTRTTADGKARLNLQEEEGSTRSEPKQGEGYKVKTKKEIRNVEKKTH
notes: also called ankG (arcAbeta, non-transgenic and APP deficient mouse brains)
